# Measurements: US20120149879A1 (published 2012)
# How the values were obtained:
# EGFR-ECD [1] = target: T1, EGFR-ECD (human, UniProt P00533 25-645); test: SPR (Biacore T100), antibody captured by anti-human IgG on C1 chip, EGFR-ECD injected, 25 C
# T1 construct: extracellular domain; Analyte in the Biacore assays; also called human epidermal growth factor receptor; HER-1
# Protocol: Capturing anti-human IgG antibody was immobilized on the surface of a C1 biosensorchip using amine-coupling chemistry. […] A reference control flow cell was treated in the same way but with vehicle buffers only instead of the capturing antibody. Surfaces were blocked with an injection of 1 M ethanolamine/HCl pH 8.5. The bispecific antibodies were diluted in HBS-P and injected at a flow rate of 5 μl/min. The contact time (association phase) was 1 min for the antibodies at a concentration between 1 and 5 nM. EGFR-ECD was injected at increasing concentrations of 1.2, 3.7, 11.1, 33.3, 100 and 300 nM, IGF-1R at concentrations of 0.37, 1.11, 3.33, 10, 30 and 90 nM. The contact time (association phase) was 3 min, the dissociation time (washing with running buffer) 5 min for both molecules at a flowrate of 30 μl/min. All interactions were performed at 25° C. (standard temperature). The regeneration solutions of 0.85% phosphoric acid and 5 mM sodium hydroxide were injected each for 60 s at 5 μl/min flow to remove any non-covalently bound protein after each binding cycle. Signals were detected at a rate of one signal per second. Samples were injected at increasing concentrations.
# EGFR-ECD [2] = target: T1, EGFR-ECD; test: SPR (Biacore T100), antibody captured by anti-human IgG on CM5 chip, EGFR-ECD injected, 25 C
# Protocol: A reference control flow cell was treated in the same way but with vehicle buffers only instead of the capturing antibody. Surfaces were blocked with an injection of 1 M ethanolamine/HCl pH 8.5. The bispecific antibodies were diluted in HBS-P and injected at a flow rate of 5 μl/min. […] The contact time (association phase) was 3 min, the dissociation time (washing with running buffer) 5 min for both molecules at a flowrate of 30 μl/min. All interactions were performed at 25° C. (standard temperature). […] Signals were detected at a rate of one signal per second. Samples were injected at increasing concentrations.
# IGF-1R = target: T2, IGF-1R (UniProt P08069 31-932, limits assumed); test: SPR (Biacore T100), antibody captured by anti-human IgG on C1 chip, IGF-1R injected, 25 C
# T2 construct: Analyte in the Biacore assays; also called IGF-IR; insulin-like growth factor I receptor
binder,measurement,setting,value
"humanized rat anti-EGFR antibody ICR62 with VH of SEQ ID NO: 8, and VL of SEQ ID NO: 10 (antibody, V domains shown, Parent monospecific 'wildtype' IgG; also called <EGFR>ICR62; <EGFR> ICR62) VH: QVQLVQSGAEVKKPGSSVKVSCKASGFTFTDYKIHWVRQAPGQGLEWMGYFNPNSGYSTYAQKFQGRVTITADKSTSTAYMELSSLRSEDTAVYYCARLSPGGYYVMDAWGQGTTVTVSS VL: DIQMTQSPSSLSASVGDRVTITCRASQGINNYLNWYQQKPGKAPKRLIYNTNNLQTGVPSRFSGSGSGTEFTLTISSLQPEDFATYYCLQHNSFPTFGQGTKLEIKR",Kd,EGFR-ECD [1],0.5 nM
same,Kd,EGFR-ECD [2],3 nM
scFab-XGFR2_2720 (bispecific antibody) chain 1: not shown chain 2: DIQMTQSPSSLSASVGDRVTITCRASQGINNYLNWYQQKPGKAPKRLIYNTNNLQTGVPSRFSGSGSGTEFTLTISSLQPEDFATYYCLQHNSFPTFGQGTKLEIKRTVAAPSVFIFPPSDEQLKSGTASVVCLLNNFYPREAKVQWKVDNALQSGNSQESVTEQDSKDSTYSLSSTLTLSKADYEKHKVYACEVTHQGLSSPVTKSFNRGEC,Kd,EGFR-ECD [1],0.5 nM
same,Kd,IGF-1R,11 nM
